Our source for the self-cleavage values is the RNAGym collection of RNA variant scans (doi:10.7554/elife.80360).

The labels stand for the following.
B1: CPEB3 Ribozyme (parent)
chain: GGGGGCCACAGCAGAAGCGUUCACGUCGCGGCCCCUGUCAGAUUCUGGUGAAUCUGCGAAUUCUGCUGU

In the series the parent is B1. Description: self-cleavage, relative activity (ratio to wild type); higher = more cleavage; co-transcriptional.
Consider GGGGGCCACAGUAGAAGCGUUCACGUCGCGGCCACUGUCAGAUUCUGGUGAAUCUGCGAAUUCUGCUGU, for which the self-cleavage worked out at 0.778.
As to GGGGGCCACAGUAGAAGCGUUCACGUCGCGGCCGCUGUCAGAUUCUGGUGAAUCUGCGAAUUCUGCUGU, the self-cleavage came out at 0.734.
As to GGGGGCCACAGUAGAAGCGUUCACGUCGCGGCCUCUGUCAGAUUCUGGUGAAUCUGCGAAUUCUGCUGU, the self-cleavage turned out to be 0.959.
With GGGGGCCACAGUAGAAGCGUUCACGUCGCGGCCCCUGUCAGAUUAUGGUGAAUCUGCGAAUUCUGCUGU, the self-cleavage came to 0.97.
Turning to GGGGGCCACAGUAGAAGCGUUCACGUCGCGGCCCCUGUCAGAUUCUGGUGAAUCUGCUAAUUCUGCUGU, the self-cleavage worked out at 0.991.
GGGGGCCACAGUAGAAGCGUUCACGUCGCGGCCCCUGUCAGAUUCUGGUGAAUCUGCAAAUUCUGCUGU: the self-cleavage worked out at 1.01.
On to GGGGGCCACAGUAGAAGCGUUCACCUCGCGGCCCCUGUCAGAUUCUGGUGAAUCUGCGAAUUCUGCUGU, for which the self-cleavage was determined as 0.121.
The same measure for GGGGGCCACAGUAGAAGCGUUCACUUCGCGGCCCCUGUCAGAUUCUGGUGAAUCUGCGAAUUCUGCUGU: 0.134; for GGGGGCCACAGUAGAAGCGUUCACAUCGCGGCCCCUGUCAGAUUCUGGUGAAUCUGCGAAUUCUGCUGU: 0.184.
On to GGGGGCCACAGUAGAAGCGUUCACGUCGCGGCCCCUGUCAGAUUCUGGUGAAUCUGCGAAUUGUGCUGU, for which the self-cleavage was 0.443.
In the case of GGGGGCCACAGUAAAAGCGUUCACGUCGCGGCCCCUGUCAGAUUCUGGUGAAUCUGCGAAUUCUGCUGU, the self-cleavage worked out at 0.19.
As for GGGGGCCACAGUAGAAGCGUUCACGUCGCGGCCCCUGUCAGAUUCUGUUGAAUCUGCGAAUUCUGCUGU, the self-cleavage worked out at 1.01.
Then GGGGGCCACAGUAGAAGCGUACACGUCGCGGCCCCUGUCAGAUUCUGGUGAAUCUGCGAAUUCUGCUGU, with 0.947.
On to GGGGGCCACAGUAGAAGCGUGCACGUCGCGGCCCCUGUCAGAUUCUGGUGAAUCUGCGAAUUCUGCUGU, for which the self-cleavage came to 0.537.
As to GGGGGCCACAGUAGAAGCGUUCACGUCGCGGCCCCUGUCAGAUUCUGGUGAAUCUGCGAAUUCUUCUGU, the self-cleavage came out at 0.948.
The same measure for GGGGGCCACAGUAGAAGCGUUCACGUCGCGGCCCCUGUCAGAUUCUGGUGAAUCUGCGAAUUCUACUGU: 1; for GGGGGCCACAGUAGAAGCGUUCACGUCGCGGCCCCUGUCAGAUUCUGGUGAAUCUGCGAAUUCUCCUGU: 0.864; for GGGGGCCACAGUAGAAGCGUUCACGGCGCGGCCCCUGUCAGAUUCUGGUGAAUCUGCGAAUUCUGCUGU: 0.925.
On to GGGGGCCACAGUAGAAGCGUUCACGCCGCGGCCCCUGUCAGAUUCUGGUGAAUCUGCGAAUUCUGCUGU, for which the self-cleavage was found to be 0.996.
The same measure for GGGGGCCACAGUAGAAGCGUUCACGACGCGGCCCCUGUCAGAUUCUGGUGAAUCUGCGAAUUCUGCUGU: 0.91.
The same measure for GGGGGCCACAGUAGAAGCGUUCACGUCGGGGCCCCUGUCAGAUUCUGGUGAAUCUGCGAAUUCUGCUGU: 0.317; for GGGGGCCACAGUAGAAGCGUUCACGUCGUGGCCCCUGUCAGAUUCUGGUGAAUCUGCGAAUUCUGCUGU: 0.232; for GGGGGCCACAGUAGAAGCGUUCACGUCGCAGCCCCUGUCAGAUUCUGGUGAAUCUGCGAAUUCUGCUGU: 0.864.
As to GGGGGCCACAGUAGAAGCGCUCACGUCGCGGCCCCUGUCAGAUUCUGGUGAAUCUGCGAAUUCUGCUGU, the self-cleavage is 0.165.
As to GGGGGCCACAGUAGAAGCGAUCACGUCGCGGCCCCUGUCAGAUUCUGGUGAAUCUGCGAAUUCUGCUGU, the self-cleavage amounted to 0.146.
On to GGGGGCCACAGUAGAAGCGUUCACGUCGCGGCCCCUGGCAGAUUCUGGUGAAUCUGCGAAUUCUGCUGU, for which the self-cleavage amounted to 0.277.
As to GGGGGCCACAGUAGAAGCGUUCACGUCGCGGCCCCUGCCAGAUUCUGGUGAAUCUGCGAAUUCUGCUGU, the self-cleavage came to 0.921.
As to GGGGGCCACAGUAGAAGCGUUCACGUCACGGCCCCUGUCAGAUUCUGGUGAAUCUGCGAAUUCUGCUGU, the self-cleavage came to 0.17.
In the case of GGGGGCCACAGUAGAAGCGUUCACGUCUCGGCCCCUGUCAGAUUCUGGUGAAUCUGCGAAUUCUGCUGU, the self-cleavage stood at 0.131.
The same measure for GGGGGCCACAGUAGAAGCGUUCACGUCCCGGCCCCUGUCAGAUUCUGGUGAAUCUGCGAAUUCUGCUGU: 0.175; for GGGGGCCACAGUAGAAGGGUUCACGUCGCGGCCCCUGUCAGAUUCUGGUGAAUCUGCGAAUUCUGCUGU: 0.218.
In the case of GGGGGCCACAGUAGAAGUGUUCACGUCGCGGCCCCUGUCAGAUUCUGGUGAAUCUGCGAAUUCUGCUGU, the self-cleavage was determined as 0.6.
GGGGGCCACAGUAGAAGAGUUCACGUCGCGGCCCCUGUCAGAUUCUGGUGAAUCUGCGAAUUCUGCUGU: the self-cleavage came out at 0.0961.
Turning to GGGGGCCACAGUAGAAGCGUUCACGUCGCGGCCCCUGUCAGAUUCCGGUGAAUCUGCGAAUUCUGCUGU, the self-cleavage was determined as 0.939.
For GGGGGCCACAGUAGAAGCGUUCACGUCGCGGCCCCUGUCAGAUUCAGGUGAAUCUGCGAAUUCUGCUGU, the self-cleavage worked out at 1.
For the variant GGGGGCCACAGUAGAAGCGUUCACGUUGCGGCCCCUGUCAGAUUCUGGUGAAUCUGCGAAUUCUGCUGU, the self-cleavage amounted to 0.297.
For GGGGGCCACAGUAGAAGCGUUCACGUAGCGGCCCCUGUCAGAUUCUGGUGAAUCUGCGAAUUCUGCUGU, the self-cleavage stood at 0.419.
The same measure for GGGGGCCACAGUAGAAGCGUUCACGUCGCGCCCCCUGUCAGAUUCUGGUGAAUCUGCGAAUUCUGCUGU: 0.191; for GGGGGCCACAGUAGAAGCGUUCACGUCGCGUCCCCUGUCAGAUUCUGGUGAAUCUGCGAAUUCUGCUGU: 0.723.
